Here are results for two molecules from article PMC9529537 (The Innovation, 2022).

This test deals with E protein on YFV virions (Yellow fever virus, strain of the …). As to the kind of experiment: flow cytometry on cells. (A flow cytometer gives signals particle by particle.)

B1: YD73 human monoclonal antibody, full-length IgG1 (antibody, V domains shown)
VH: QVQLVQSGAEVKKPGASVKVSCKASGYTFIAYGISWVRQAPGQGLEWMGWISAHNGNTNYAQKFQGRVTVTTDTTTRTAFMELRNLRSDDTAVYYCARAPWEYNYRSSGYYDSPYWGQGTLVTVSS
VL: EIVLTQSPGTLSLSPGERATLSCRASQSVVSTYLAWYQQKPGQAPRLLIYDTSTRATGIPDRFSGSGSGTDFTLTISRLEPEDFAVYYCQHYDSSPPWTFGQGTKVEIK
B1: the binding result is on record as “binds”.

B2: YD6 human monoclonal antibody, full-length IgG1 (antibody, V domains shown)
VH: EVQLVESGGGLVKPGGSLRLSCAASGFIFSDYYMMWIRQAPGKGLEWISYISSSGSQIYYTESVKGRFTISRDNGKNLLYLQMNSLRGEDTALYYCATETGWRIDTWGQGTLVTVSS
VL: QAVLTQPASVSGSPGQSITISCTGTGSNIETYNLVSWYQRHPGKAPKLILYEVSERPSGVSNRFSGSKSGNTASLTISGLQAEDEADYFCCSYADTNIFWVFGGGTHLTVL
B2: the binding result is “binds”.
